Assay results published in US6410248.

Biological target: Zif268 zinc fingers 1-3 (wild type) (UniProt P08046 SEQ:1-90)
Assay: EMSA; 15 mM Hepes-NaOH pH 7.9, 50 mM KCl, 50 mM K glutamate, 50 mM K acetate, 5 mM MgCl2, 20 uM ZnSO4, no competitor DNA

B1: Zif268 site (dsDNA)
DNA 1: CCAGTAGCGGGGGCGTCCTCG
DNA 2: CGAGGACGCCCCCGCTACTGG
Kd: 0.01 nM
